Experimental data as given in patent publication US20040110684A1 (UNIVERSITE CATHOLIQUE DE LOUVAIN, published 2004).
Values belong to the binder of their own block, whether it stands above or below them.

B1: endothelial nitric oxide synthase (eNOS), endogenous, human umbilical vein endothelial cells (HUVECs) (enzyme)
chain: GNLKSVAQEPGPPCGLGLGLGLGLCGKQGPATPAPEPSRAPASLLPPAPEHSPPSSPLTQPPEGPKFPRVKNWEVGSITYDTLSAQAQQDGPCTPRRCLGSLVFPRKLQGRPSPGPPAPEQLLSQARDFINQYYSSIKRSGSQAHEQRLQEVEAEVAATGTYQLRESELVFGAKQAWRNAPRCVGRIQWGKLQVFDARDCRSAQEMFTYICNHIKYATNRGNLRSAITVFPQRCPGRGDFRIWNSQLVRYAGYRQQDGSVRGDPANVEITELCIQHGWTPGNGRFDVLPLLLQAPDDPPELFLLPPELVLEVPLEHPTLEWFAALGLRWYALPAVSNMLLEIGGLEFPAAPFSGWYMSTEIGTRNLCDPHRYNILEDVAVCMDLDTRTTSSLWKDKAAVEINVAVLHSYQLAKVTIVDHHAATASFMKHLENEQKARGGCPADWAWIVPPISGSLTPVFHQEMVNYFLSPAFRYQPDPWKGSAAKGTGITRKKTFKEVANAVKISASLMGTVMAKRVKATILYGSETGRAQSYAQQLGRLFRKAFDPRVLCMDEYDVVSLEHETLVLVVTSTFGNGDPPENGESFAAALMEMSGPYNSSPRPEQHKSYKIRFNSISCSDPLVSSWRRKRKESSNTDSAGALGTLRFCVFGLGSRAYPHFCAFARAVDTRLEELGGERLLQLGQGDELCGQEEAFRGWAQAAFQAACETFCVGEDAKAAARDIFSPKRSWKRQRYRLSAQAEGLQLLPGLIHVHRRKMFQATIRSVENLQSSKSTRATILVRLDTGGQEGLQYQPGDHIGVCPPNRPGLVEALLSRVEDPPAPTEPVAVEQLEKGSPGGPPPGWVRDPRLPPCTLRQALTFFLDITSPPSPQLLRLLSTLAEEPREQQELEALSQDPRRYEEWKWFRCPTLLEVLEQFPSVALPAPLLLTQLPLLQPRYYSVSSAPSTHPGEIHLTVAVLAYRTQDGLGPLHYGVCSTWLSQLKPGDPVPCFIRGAPSFRLPPDPSLPCILVGPGTGIAPFRGFWQERLHDIESKGLQPTPMTLVFGCRCSQLDHLYRDEVQNAQQRGVFGRVLTAFSREPDNPKTYVQDILRTELAAEVHRVLCLERGHMFVCGDVTMATNVLQTVQRILATEGDMELDEAGDVIGVLRDQQRYHEDIFGLTLRTQEVTSRIRTQSFSLQERQLRGAVPWAFDPPGSDTNSP

Key:
[1] = target: calmodulin (CaM), endogenous, human umbilical vein endothelial cells (HUVECs) (human, UniProt P0DP23 2-149); test: eNOS IP, CaM immunoblot, VEGF-treated HUVEC lysates
[2] = target: T1, endothelial nitric oxide synthase (eNOS), endogenous, mouse cardiac microvascular endothelial cells (CMECs) (mouse, UniProt P70313 2-1202); test: co-IP with eNOS or caveolin antibodies, immunoblot, CMEC lysates
T1 construct: Endogenous protein in a cell lysate, detected by co-immunoprecipitation and immunoblot; also called endothelial NO synthase
T1 sequence (looked up): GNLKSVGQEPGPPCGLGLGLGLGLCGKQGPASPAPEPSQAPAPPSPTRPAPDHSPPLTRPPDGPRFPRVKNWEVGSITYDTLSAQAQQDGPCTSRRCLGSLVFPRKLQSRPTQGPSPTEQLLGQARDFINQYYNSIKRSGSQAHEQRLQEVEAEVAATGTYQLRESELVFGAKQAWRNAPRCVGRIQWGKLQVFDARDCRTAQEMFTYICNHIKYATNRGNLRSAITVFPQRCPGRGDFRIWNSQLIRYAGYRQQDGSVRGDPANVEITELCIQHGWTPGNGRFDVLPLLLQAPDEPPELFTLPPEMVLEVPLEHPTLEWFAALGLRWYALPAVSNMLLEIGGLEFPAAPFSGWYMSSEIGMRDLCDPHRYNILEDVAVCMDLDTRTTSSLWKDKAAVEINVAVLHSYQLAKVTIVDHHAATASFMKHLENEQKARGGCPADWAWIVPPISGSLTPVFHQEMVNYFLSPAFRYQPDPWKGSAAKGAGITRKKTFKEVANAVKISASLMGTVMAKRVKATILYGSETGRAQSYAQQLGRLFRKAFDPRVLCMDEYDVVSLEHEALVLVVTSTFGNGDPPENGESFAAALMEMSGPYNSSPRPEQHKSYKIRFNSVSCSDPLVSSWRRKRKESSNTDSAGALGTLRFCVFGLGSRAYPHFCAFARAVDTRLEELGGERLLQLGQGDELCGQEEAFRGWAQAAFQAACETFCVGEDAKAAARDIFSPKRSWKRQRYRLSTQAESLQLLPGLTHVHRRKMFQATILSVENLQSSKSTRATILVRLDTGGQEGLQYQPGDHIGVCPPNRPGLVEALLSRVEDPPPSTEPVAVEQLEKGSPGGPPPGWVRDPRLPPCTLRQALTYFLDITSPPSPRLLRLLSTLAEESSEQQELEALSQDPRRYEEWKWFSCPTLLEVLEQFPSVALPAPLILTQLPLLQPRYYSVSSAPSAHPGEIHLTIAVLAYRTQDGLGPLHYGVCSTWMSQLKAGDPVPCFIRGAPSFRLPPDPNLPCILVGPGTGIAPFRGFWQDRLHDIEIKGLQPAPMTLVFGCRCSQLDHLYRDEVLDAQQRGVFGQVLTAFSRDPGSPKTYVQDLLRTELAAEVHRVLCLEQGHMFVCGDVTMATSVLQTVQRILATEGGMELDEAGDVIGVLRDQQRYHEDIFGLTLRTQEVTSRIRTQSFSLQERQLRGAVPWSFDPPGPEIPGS

[3] = target: B1; test: caveolin IP, eNOS immunoblot, HUVEC lysates

Binder: B1
binding result [1]: binds

binding result [2]: binds
B2: caveolin, endogenous, mouse cardiac microvascular endothelial cells (CMECs) (other, UniProt P49817 2-178, looked up)
chain: SGGKYVDSEGHLYTVPIREQGNIYKPNNKAMADEVTEKQVYDAHTKEIDLVNRDPKHLNDDVVKIDFEDVIAEPEGTHSFDGIWKASFTTFTVTKYWFYRLLSTIFGIPMALIWGIYFAILSFLHIWAVVPCIKSFLIEIQCISRVYSIYVHTFCDPLFEAIGKIFSNIRISTQKEI
notes: also called caveolin-1

binding result [3]: binds
B3: caveolin, endogenous, human umbilical vein endothelial cells (HUVECs) (other, UniProt Q03135 2-178, looked up)
chain: SGGKYVDSEGHLYTVPIREQGNIYKPNNKAMADELSEKQVYDAHTKEIDLVNRDPKHLNDDVVKIDFEDVIAEPEGTHSFDGIWKASFTTFTVTKYWFYRLLSALFGIPMALIWGIYFAILSFLHIWAVVPCIKSFLIEIQCISRVYSIYVHTVCDPLFEAVGKIFSNVRINLQKEI
notes: also called caveolin-1
